Test results reported in US20240360217A1.

Tests used:
[1] = target: human PD-L1 on tumor cells (human) (UniProt Q9NZQ7); experiment: FACS staining of HCT116 cells with the control antibody; triplicates
[2] = target: human PD-L1 on tumor cells (human) (UniProt Q9NZQ7); experiment: FACS staining of MDA-MB-231 cells with the control antibody; triplicates

Sequence of human PD-L1 on tumor cells (human) (Q9NZQ7 19-290 limits assumed): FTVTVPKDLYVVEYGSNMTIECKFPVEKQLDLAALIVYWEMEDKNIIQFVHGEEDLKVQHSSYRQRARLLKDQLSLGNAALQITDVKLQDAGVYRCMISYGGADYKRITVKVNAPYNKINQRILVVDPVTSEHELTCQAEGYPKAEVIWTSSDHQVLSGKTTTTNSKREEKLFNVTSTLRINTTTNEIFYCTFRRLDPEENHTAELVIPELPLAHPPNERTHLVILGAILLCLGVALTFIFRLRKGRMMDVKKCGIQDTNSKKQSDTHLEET

anti-PD-L1 RG7446 MPDL3280A (antibody)
PD-L1 (MFI) [1]: 10900 MFI
PD-L1 (MFI) [2]: 74600 MFI
